Reference: article PMC10397247

Assays:
Test in all cases: two-hybrid library CCmax;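 further: natural log of median RNA to DNA barcode read ratio; higher means stronger binding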
Details in all cases: mean of both orientations
Core_NNNN-es_KKEE = target: T1, Core_NNNN-es_KKEE
T1 chain: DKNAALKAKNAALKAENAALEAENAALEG

Core_NNNN-es_KEKE = target: T2, Core_NNNN-es_KEKE
T2 chain: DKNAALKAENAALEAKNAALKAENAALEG

Core_NNIN-es_KKEE = target: T3, Core_NNIN-es_KKEE
T3 chain: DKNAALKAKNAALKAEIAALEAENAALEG

Core_IINN-es_KKKE = target: T4, Core_IINN-es_KKKE
T4 chain: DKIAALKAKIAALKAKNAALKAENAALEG

## DENAALEAENAALEAKNAALKAKNAALKG [Core_NNNN-es_EEKK]
Core_NNNN-es_KKEE
  interaction score: 0.234

## DENAALEAKNAALKAENAALEAKNAALKG [Core_NNNN-es_EKEK]
Core_NNNN-es_KEKE
  interaction score: -0.668

## DENAALEAENAALEAKIAALKAKNAALKG [Core_NNIN-es_EEKK]
Core_NNIN-es_KKEE
  interaction score: 1.83

## DEIAALEAEIAALEAENAALEAKNAALKG [Core_IINN-es_EEEK]
Core_IINN-es_KKKE
  interaction score: 2.03
